Patent publication US20230381350A1 (PRECIRIX N V, published 2023)
Changes are numbered by the printed parent chain. In names and notes the source's numbering stands. Blank lines part the entries; values can stand above or below the binder they belong to.

How the values were obtained:
[1] = molecular target: T1, human FAP recombinant protein (human, UniProt Q12884 26-760); test: ELISA, coated human FAP recombinant protein, HA-His6-tagged VHH extract, anti-HA detection
T1 construct: The protein was biotinylated with sulfo-NHS-SS-biotin for bio-layer interferometry; also called extracellular domain of human FAP with N-terminal His6-tag
T1 sequence: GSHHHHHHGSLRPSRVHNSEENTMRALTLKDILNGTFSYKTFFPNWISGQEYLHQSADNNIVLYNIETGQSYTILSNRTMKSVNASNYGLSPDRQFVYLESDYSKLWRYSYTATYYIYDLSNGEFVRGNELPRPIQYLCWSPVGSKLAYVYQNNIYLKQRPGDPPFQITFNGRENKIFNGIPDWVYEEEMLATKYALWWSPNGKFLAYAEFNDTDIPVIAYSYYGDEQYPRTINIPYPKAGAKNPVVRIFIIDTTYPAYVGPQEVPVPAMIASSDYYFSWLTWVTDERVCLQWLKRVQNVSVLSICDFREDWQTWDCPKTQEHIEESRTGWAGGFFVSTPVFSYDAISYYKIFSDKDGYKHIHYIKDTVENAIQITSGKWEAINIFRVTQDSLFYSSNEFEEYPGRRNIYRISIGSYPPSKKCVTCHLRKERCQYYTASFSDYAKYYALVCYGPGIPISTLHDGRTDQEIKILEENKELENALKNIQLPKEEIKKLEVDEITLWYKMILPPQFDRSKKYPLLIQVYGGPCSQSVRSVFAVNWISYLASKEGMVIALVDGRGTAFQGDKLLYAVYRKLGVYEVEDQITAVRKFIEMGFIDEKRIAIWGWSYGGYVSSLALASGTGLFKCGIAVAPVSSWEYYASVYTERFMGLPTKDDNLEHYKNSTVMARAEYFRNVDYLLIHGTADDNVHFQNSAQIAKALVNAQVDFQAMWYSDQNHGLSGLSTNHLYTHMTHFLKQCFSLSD
Procedure: (§1) The day before measurement, 0.1 μg recombinant protein at a concentration of 1 μg/mL in 100 mM NaHCO₃, pH 8.2 was coated in a 96-well ELISA plate (Nunc MaxiSorp). Per VHH clone also a blank coated well was foreseen (only buffer). The wells were overcoated with protein-free T20 (PBS) blocking buffer (Pierce). After washing with PBS, pH7.4, 0.05% Tween, VHH-containing bacterial freeze-thaw extract was added to every well. Binding of HA-His₆-tagged VHHs was detected by using mouse anti-HA.11 epitope tag (clone 16B12, Biolegend) as the primary Ab and goat anti-mouse IgG (whole molecule) alkaline phosphatase conjugate (Sigma-Aldrich) as the secondary Ab, with thorough washing with PBS, pH 7.4, 0.05% Tween in between. Signals were developed using phosphatase substrate (Sigma-Aldrich) in AP blot buffer (100 mM NaCl, 50 mM MgCl₂, 100 mM Tris, pH 9.5). The absorbance was determined at 405 nm using an absorbance microplate reader (Molecular Devices). Per clone the ratio was determined between the absorbance in the antigen-coated well versus the well without antigen.

[2] = molecular target: T2, human DPP IV recombinant protein (human, UniProt P27487 29-766); test: ELISA, coated human DPP IV, HA-His6-tagged VHH extract, anti-HA detection
T2 construct: extracellular domain; Bought protein; also called Dipeptidyl amino-peptidase IV
T2 sequence (P27487 29-766): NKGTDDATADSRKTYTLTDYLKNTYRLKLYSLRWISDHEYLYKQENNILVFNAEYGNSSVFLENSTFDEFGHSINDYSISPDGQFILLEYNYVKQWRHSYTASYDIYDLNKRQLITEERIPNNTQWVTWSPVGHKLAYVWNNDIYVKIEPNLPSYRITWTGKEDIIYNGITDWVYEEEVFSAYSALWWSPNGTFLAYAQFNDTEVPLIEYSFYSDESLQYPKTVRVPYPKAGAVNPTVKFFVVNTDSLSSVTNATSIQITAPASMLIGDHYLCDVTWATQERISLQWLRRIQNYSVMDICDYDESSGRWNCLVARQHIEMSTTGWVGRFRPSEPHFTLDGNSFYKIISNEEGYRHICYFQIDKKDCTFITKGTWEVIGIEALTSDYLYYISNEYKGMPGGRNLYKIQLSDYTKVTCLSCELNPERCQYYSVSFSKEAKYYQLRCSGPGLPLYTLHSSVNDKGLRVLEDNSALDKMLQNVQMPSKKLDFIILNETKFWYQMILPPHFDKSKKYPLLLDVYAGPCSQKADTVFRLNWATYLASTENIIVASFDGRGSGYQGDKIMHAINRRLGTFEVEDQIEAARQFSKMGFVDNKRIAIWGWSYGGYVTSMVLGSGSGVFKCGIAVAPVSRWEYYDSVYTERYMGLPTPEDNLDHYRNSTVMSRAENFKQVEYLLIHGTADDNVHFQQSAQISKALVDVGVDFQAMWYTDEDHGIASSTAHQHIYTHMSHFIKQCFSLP
Procedure: as §1

[3] = molecular target: T2, human DPP IV recombinant protein; test: ELISA on coated recombinant protein, VHH-containing bacterial extract, anti-HA detection, signal-to-background ratio
Procedure: as §1

[4] = molecular target: T3, human FAP expressed on cells (human, UniProt Q12884 1-760); test: saturation binding of 99mTc-labelled VHH on human FAP-expressing GM05389 cells (mean ± SD, n = 3)
T3 construct: also called human FAP cell surface protein; human FAP receptor
T3 sequence: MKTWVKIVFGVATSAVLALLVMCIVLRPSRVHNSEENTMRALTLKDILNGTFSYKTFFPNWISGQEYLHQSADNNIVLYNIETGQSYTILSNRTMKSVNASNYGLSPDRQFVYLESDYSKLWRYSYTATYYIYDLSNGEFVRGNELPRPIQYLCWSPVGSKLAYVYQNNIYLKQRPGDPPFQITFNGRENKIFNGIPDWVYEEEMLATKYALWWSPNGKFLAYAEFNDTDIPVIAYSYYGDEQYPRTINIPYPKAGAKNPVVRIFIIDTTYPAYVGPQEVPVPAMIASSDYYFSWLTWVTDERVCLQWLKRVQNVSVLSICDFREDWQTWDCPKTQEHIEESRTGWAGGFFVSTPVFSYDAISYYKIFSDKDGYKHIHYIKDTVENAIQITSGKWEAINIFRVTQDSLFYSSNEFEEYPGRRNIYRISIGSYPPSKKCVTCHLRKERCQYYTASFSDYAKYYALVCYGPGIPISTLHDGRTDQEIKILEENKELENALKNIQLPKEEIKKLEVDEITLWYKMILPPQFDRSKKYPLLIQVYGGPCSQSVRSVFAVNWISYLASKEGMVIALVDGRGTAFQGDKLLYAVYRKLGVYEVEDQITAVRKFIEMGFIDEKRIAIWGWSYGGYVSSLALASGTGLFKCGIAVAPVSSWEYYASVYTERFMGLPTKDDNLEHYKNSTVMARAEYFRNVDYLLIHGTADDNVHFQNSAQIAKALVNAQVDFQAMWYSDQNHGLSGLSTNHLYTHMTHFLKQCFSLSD
Procedure: (§2) Next, we describe the in vitro and in vivo human and murine FAP binding potential of different VHHs after radiolabelling with the diagnostic radioisotope ^99mTc. […] His₆-tagged human/murine FAP-targeting VHHs were radiolabelled with the diagnostic radioisotope ^99mTc, according to the radiochemical procedure described in Example 3.
(§3) Next, the different cell lines were incubated with serial dilutions with concentrations ranging from 0 to 300 nM of the different ^99mTc-labelled His₆-tagged VHHs. A 100-fold excess of the corresponding unlabeled VHH was added in parallel to saturate the human or murine FAP proteins on the cancer cell surface, to assess non-specific binding. The resulting EC50 values for each of the VHHs are depicted in Table 8. […] We confirmed that ^99mTc-labeled VHH B4 only binds murine FAP cell surface protein, while VHH B3 only binds human FAP cell surface molecules in vitro.

[5] = molecular target: T4, murine FAP expressed on cells (murine, UniProt P97321 1-761); test: saturation binding of 99mTc-labelled VHH on murine FAP-expressing HEK-293 cells (mean ± SD, n = 3)
T4 construct: also called murine FAP cell surface protein
T4 sequence: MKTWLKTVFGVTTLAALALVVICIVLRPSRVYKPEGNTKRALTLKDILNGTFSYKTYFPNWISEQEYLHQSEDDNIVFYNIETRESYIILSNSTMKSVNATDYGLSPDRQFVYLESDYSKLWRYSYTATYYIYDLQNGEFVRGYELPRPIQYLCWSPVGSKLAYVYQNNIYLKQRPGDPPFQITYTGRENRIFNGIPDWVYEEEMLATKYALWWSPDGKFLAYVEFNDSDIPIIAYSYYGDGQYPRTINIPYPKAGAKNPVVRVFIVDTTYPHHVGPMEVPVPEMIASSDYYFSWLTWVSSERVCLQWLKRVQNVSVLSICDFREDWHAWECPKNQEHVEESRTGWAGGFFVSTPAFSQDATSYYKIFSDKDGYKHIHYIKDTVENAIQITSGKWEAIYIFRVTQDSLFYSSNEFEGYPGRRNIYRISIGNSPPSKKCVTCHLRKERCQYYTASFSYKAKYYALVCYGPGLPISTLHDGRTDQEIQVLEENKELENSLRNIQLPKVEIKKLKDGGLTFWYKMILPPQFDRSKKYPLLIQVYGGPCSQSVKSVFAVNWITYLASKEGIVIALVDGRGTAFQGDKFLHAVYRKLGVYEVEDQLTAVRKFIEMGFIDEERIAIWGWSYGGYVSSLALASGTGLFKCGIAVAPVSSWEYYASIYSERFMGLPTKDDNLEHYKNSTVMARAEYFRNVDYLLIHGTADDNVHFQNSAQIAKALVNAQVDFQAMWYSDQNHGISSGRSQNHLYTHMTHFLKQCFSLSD
Procedure: as §2, §3

[6] = molecular target: T3, human FAP expressed on cells; test: saturation binding of 99mTc-labelled VHH on human FAP-expressing HEK-293 cells (mean ± SD, n = 3)
Procedure: as §2, §3

[7] = molecular target: T5, murine FAP recombinant protein (murine, UniProt P97321 26-761); test: bio-layer interferometry (Octet RED96), biotinylated murine FAP on streptavidin sensor, kinetic titration, 25 °C
T5 construct: The protein was biotinylated for bio-layer interferometry; also called extracellular domain of murine FAP with N-terminal His6-tag
T5 sequence: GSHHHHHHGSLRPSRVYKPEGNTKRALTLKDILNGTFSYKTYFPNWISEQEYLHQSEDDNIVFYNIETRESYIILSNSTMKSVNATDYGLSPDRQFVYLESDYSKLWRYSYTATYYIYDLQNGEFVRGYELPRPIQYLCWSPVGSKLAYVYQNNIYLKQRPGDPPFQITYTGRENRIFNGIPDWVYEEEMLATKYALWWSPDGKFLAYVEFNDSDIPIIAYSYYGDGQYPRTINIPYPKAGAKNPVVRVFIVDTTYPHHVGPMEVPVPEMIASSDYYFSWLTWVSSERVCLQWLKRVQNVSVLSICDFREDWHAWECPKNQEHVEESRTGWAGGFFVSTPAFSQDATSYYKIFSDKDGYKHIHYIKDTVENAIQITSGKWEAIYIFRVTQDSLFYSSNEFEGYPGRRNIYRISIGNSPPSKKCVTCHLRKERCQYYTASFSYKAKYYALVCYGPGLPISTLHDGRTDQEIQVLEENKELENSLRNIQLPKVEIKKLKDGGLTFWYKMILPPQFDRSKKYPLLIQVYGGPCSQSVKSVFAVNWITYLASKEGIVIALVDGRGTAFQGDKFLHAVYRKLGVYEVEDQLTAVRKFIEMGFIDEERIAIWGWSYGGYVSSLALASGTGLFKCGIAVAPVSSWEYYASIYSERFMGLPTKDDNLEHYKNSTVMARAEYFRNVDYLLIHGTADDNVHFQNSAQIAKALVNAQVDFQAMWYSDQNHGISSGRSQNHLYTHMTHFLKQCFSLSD
Procedure: (§4) The kinetic parameters of antigen binding by purified VHHs were determined via bio-layer interferometry with an Octet RED96 instrument (ForteBio). The assay was performed at 25° C. with shaking at 1000 rpm. Streptavidin coated SA sensors were equilibrated in assay buffer (HBS supplemented with 0.5% BSA, 0.1% Tween), before loading for 5 min with the biotinylated FAP recombinant protein at a concentration of 5 μg/ml. His₆-tagged VHHs were analyzed in a threefold serial dilution from 30 nM to 0.4 nM in assay buffer (except for VHH B3 binding murine FAP recombinant protein, for which a fivefold serial dilution from 1000 nM to 1.6 nM was employed). First the baseline was measured for 180 s in assay buffer, followed by 5 subsequent association phases of 180 s with the VHH preparations in increasing order of concentration, with 75 s intermediate dissociation phases in assay buffer in between, and a final dissociation phase in assay buffer of 30 min. In every assay a reference sensor loaded with FAP recombinant protein was included that was incubated in assay buffer during the association phases.
(§5) Binding curves were exported and analyzed using the BIAevaluation analysis software (GE Healthcare). First the y-axes of the different curves were aligned to the median of the last 5 s of the baseline measurement. Subsequently, the sensorgram of the reference sensor was subtracted from all other sensorgrams. The resulting binding curve was fitted using a general fit with the ‘kinetic titration with drift’ binding model (1:1 (antigen:analyte) model; Karlsson, R. et al (2006), Analyzing a kinetic titration series using affinity biosensors. Analytical Biochemistry 349: 136-147), with Rmax fitted global, RI local and drift set to 0.
(§6) Table 7 gives an overview of the kinetic parameters of antigen binding for His₆-tagged VHHs B1, B2, B3 and B4 (SEQ ID NO: 21-24), as determined by bio-layer interferometry with biotinylated human or murine FAP recombinant protein that was loaded on the sensor.

[8] = molecular target: T1, human FAP recombinant protein; test: bio-layer interferometry (Octet RED96), biotinylated human FAP on streptavidin sensor, kinetic titration, 25 °C
Procedure: as §4, §5, §6

signal-to-background ratio [1]: > 25
signal-to-background ratio [2]: ~1
binding result [3]: no binding
B1: HA-His6-tagged VHH B1 (VHH)
VHH: QVQLQESGGGLVQPGGSLRLSCVASGRLSSSNSMAWYRQVPGKRRELVAGITGGGETNYADFVGGRFTISRDNAKNGLYLQLNGLKPEDTAAYYCNFWPPLINYWGQGTQVTVSS
notes: Used as bacterial freeze-thaw extract in ELISA and flow cytometry, and at 1 µM in the enzyme assay; also called B1 with HA-His6-tag

EC50 [4]: 0.5 nM
EC50 [5]: 5.8 nM
EC50 [6]: 0.6 nM
B2: 99mTc-labeled His6-tagged VHH B1 (VHH)
VHH: B1 VHH with Q1D, Q5V
modifications: [99mTc(H2O)3(CO)3] complexed at the His6-tag
notes: also called 99mTc-B1

Kd [7]: 0.512 nM
koff [7]: 0.00056 s⁻¹
kon [7]: 1.1e+06 M⁻¹ s⁻¹
B3: His6-tagged VHH B4 (VHH)
VHH: DVQLVESGGGLVQVGGSLRLSCVASGFTFSSYYMSWVRQAPGKGLEWVASIYADGDMTYYADSVRGRFTISRDNAKNTLYLQMNSLKSEDTAVYYCAKDPLPPYHVNQGTQVTVSS
notes: Purified, unlabelled; used in bio-layer interferometry; also called B4 with His6-tag

Kd [8]: 0.0744 nM
koff [8]: 3.1e-05 s⁻¹
kon [8]: 420000 M⁻¹ s⁻¹
Kd [7]: 24.3 nM
koff [7]: 0.0082 s⁻¹
kon [7]: 340000 M⁻¹ s⁻¹
B4: His6-tagged VHH B2 (VHH)
VHH: DVQLVESGGGLVQAGGSLRLSCAVSGSISSANSMGWYRQAPGKQRDVVAGLTTGGRSHYADSVKGRFTISRDNAKNTVYLQMNSLKAEDTAVYYCNLWPPVQGYWGQGTQVTVSS
notes: Purified, unlabelled; used in bio-layer interferometry; also called B2 with His6-tag

EC50 [4]: 3.2 nM
EC50 [5]: 139 nM
EC50 [6]: 13 nM
B5: 99mTc-labeled His6-tagged VHH B2 (VHH)
VHH: B4 VHH
modifications: [99mTc(H2O)3(CO)3] complexed at the His6-tag
notes: also called 99mTc-B2
